The values below are quoted from earlier work in paper PMC11641302.

As a reminder, the pKa is the pH at which an ionisable group is half protonated.

Data set [1] concerns the target Nterm1 (UniProt position 2, ----MPVYMVY).
In data set [2] the target is Nterm1 (UniProt position 2, ----MPLLKFD).

Turning to “cis-3-chloroacrylic acid dehalogenase (cis-CaaD) (Coryneform bacterium)”, in the data set with Nterm1 [1], the pKa is around 9.3.
On to “malonate semialdehyde decarboxylase (MSAD) (Pseudomonas pavonaceae)”, for which the pKa with Nterm1 [2] is given as around 9.2.
